Measurements reported in publication PMC8881611, “A mechanism of origin licensing control through autoinhibition of S. cerevisiae ORC·DNA·Cdc6” (Nature Communications, 2022).

T1: S. cerevisiae Orc1 (S. cerevisiae, UniProt P54784 1-914)
T1 construct: Orc1, S. cerevisiae, wild type; Stood in the assays as a subunit of ScORC·DNA(·Cdc6); also called ScOrc1; source: High5 insect cells, co-expressed and purified as a subunit of ScORC; not shown: His6, N-terminal, cleaved
T1 sequence (looked up): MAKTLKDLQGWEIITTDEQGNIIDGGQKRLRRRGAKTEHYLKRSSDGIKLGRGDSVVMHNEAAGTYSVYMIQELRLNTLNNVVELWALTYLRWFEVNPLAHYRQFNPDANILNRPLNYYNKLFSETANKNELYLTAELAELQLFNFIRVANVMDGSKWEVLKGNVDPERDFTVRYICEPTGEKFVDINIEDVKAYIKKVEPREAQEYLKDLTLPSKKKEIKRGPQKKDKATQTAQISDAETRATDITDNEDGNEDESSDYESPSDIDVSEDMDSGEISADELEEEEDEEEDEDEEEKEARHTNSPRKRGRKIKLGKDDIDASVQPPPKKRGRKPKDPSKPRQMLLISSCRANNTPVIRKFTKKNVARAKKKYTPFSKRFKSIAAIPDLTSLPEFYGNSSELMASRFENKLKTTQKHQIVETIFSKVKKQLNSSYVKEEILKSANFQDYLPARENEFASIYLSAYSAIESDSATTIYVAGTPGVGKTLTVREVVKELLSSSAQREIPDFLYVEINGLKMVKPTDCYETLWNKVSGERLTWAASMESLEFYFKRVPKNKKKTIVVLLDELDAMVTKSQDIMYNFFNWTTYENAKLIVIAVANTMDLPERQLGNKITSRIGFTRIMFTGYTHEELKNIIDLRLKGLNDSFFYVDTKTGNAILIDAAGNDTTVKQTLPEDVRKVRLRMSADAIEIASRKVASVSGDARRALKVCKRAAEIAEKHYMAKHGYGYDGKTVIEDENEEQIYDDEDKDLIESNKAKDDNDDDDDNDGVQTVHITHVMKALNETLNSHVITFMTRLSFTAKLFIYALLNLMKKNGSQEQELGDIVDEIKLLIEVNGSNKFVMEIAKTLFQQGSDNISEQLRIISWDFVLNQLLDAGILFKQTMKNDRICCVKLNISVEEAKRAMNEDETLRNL

B1: S. cerevisiae Cdc6 (ScCdc6), full length (natural protein, UniProt P09119 1-513, looked up)
chain: MSAIPITPTKRIRRNLFDDAPATPPRPLKRKKLQFTDVTPESSPEKLQFGSQSIFLRTKALLQKSSELVNLNSSDGALPARTAEYEQVMNFLAKAISEHRSDSLYITGPPGTGKTAQLDMIIRQKFQSLPLSLSTPRSKDVLRHTNPNLQNLSWFELPDGRLESVAVTSINCISLGEPSSIFQKIFDSFQDLNGPTLQIKNMQHLQKFLEPYHKKTTFVVVLDEMDRLLHANTSETQSVRTILELFLLAKLPTVSFVLIGMANSLDMKDRFLSRLNLDRGLLPQTIVFQPYTAEQMYEIVIQKMSSLPTIIFQPMAIKFAAKKCAGNTGDLRKLFDVLRGSIEIYELEKRFLLSPTRGSLNSAQVPLTPTTSPVKKSYPEPQGKIGLNYIAKVFSKFVNNNSTRTRIAKLNIQQKLILCTIIQSLKLNSDATIDESFDHYIKAITKTDTLAPLQRNEFLEICTILETCGLVSIKKTKCKGKTKRFVDKIDVDLDMREFYDEMTKISILKPFLH
notes: Cdc6, S. cerevisiae, wild type; also called co-loader; source: High5 insect cells, baculovirus, purified as ScORC (HisTrap, amylose, TEV cleavage, HisTrap, Superdex 200); not shown: His6, N-terminal, cleaved; MBP, N-terminal, cleaved

How the values were obtained:
Assay in all cases: cryo-EM structure; ScORC (2.5 uM), 84 bp ARS1 DNA (3 uM) and ScCdc6 (6.8 uM) reconstituted with 1 mM ATP, purified on Superose 6 in 25 mM HEPES-KOH pH 7.6, 250 mM potassium acetate, 10 mM magnesium acetate, 1 mM DTT, 0.2 mM ATP; not cross-linked; masked 3D classification
Conditions in all cases: both partners purified
[1] = biological target: B1
[2] = biological target: T2, S. cerevisiae Origin Recognition Complex (ScORC), full-length Orc1-6 (S. cerevisiae, UniProt P54784 1-914; P32833 1-620; P54790 1-616; P54791 1-529; P50874 1-479; P38826 …, mixture of unphosphorylated and phosphorylated Orc6, including established CDK sites (sites not given))
T2 construct: Orc1, S. cerevisiae, wild type; Orc2, S. cerevisiae, wild type; Orc3, S. cerevisiae, wild type; Orc4, S. cerevisiae, wild type; Orc5, S. cerevisiae, wild type; Orc6, S. cerevisiae, wild type; also called initiator; source: High5 insect cells co-infected with baculoviruses, purified (HisTrap, amylose, TEV cleavage, HisTrap, Sephacryl S-400); not shown: His6, N-terminal, cleaved; MBP, N-terminal, …

[3] = biological target: T1, S. cerevisiae Orc1

T2 sequence (P32833 whole entry, chain 2 of 4): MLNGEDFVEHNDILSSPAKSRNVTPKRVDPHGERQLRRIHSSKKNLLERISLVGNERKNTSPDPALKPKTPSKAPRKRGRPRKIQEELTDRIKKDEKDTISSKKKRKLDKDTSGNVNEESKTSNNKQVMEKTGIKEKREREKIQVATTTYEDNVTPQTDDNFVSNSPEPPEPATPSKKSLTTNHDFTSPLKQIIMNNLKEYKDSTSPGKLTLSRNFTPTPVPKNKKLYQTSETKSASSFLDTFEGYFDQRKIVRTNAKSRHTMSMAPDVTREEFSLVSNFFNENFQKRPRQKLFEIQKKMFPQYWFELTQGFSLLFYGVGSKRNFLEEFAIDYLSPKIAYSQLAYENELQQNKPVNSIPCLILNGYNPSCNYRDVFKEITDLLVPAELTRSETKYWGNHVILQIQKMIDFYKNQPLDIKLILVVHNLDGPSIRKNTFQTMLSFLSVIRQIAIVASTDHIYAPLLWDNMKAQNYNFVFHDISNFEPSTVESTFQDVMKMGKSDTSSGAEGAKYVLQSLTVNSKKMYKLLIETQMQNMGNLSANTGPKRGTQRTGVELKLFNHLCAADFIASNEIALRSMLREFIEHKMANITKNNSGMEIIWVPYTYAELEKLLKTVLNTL
T2 sequence (P54790 whole entry, chain 3 of 4): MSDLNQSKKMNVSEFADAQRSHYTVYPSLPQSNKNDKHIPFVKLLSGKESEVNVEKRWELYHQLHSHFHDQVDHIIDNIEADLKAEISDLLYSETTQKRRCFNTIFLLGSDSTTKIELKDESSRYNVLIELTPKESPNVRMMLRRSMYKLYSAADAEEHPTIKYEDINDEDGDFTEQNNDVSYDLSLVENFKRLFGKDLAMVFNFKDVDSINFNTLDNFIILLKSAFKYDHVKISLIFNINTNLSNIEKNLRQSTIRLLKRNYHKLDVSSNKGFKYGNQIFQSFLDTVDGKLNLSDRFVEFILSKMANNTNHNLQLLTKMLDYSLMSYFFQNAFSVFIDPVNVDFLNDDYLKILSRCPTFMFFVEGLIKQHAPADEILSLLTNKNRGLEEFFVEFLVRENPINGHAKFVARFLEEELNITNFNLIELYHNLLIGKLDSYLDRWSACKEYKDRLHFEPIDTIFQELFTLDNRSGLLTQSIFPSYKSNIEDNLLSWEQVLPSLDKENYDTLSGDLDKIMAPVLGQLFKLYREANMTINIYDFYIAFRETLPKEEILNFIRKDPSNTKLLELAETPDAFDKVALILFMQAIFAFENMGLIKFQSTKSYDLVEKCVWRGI
T2 sequence (P54791 whole entry, chain 4 of 4): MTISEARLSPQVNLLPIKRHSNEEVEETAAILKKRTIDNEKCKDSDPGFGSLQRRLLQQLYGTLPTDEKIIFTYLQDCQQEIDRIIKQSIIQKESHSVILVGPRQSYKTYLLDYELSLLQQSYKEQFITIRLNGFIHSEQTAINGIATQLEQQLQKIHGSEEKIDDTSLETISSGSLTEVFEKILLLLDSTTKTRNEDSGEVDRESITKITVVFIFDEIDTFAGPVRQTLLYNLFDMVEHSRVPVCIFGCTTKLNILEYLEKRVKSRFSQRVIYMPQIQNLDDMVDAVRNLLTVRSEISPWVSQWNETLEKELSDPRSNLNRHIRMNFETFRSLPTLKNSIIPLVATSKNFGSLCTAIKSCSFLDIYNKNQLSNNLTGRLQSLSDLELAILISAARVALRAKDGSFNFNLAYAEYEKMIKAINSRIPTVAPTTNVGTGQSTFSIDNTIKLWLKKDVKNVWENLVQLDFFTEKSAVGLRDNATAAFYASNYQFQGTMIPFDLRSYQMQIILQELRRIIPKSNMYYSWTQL
T2 sequence (P50874 whole entry, chain 5 of 4): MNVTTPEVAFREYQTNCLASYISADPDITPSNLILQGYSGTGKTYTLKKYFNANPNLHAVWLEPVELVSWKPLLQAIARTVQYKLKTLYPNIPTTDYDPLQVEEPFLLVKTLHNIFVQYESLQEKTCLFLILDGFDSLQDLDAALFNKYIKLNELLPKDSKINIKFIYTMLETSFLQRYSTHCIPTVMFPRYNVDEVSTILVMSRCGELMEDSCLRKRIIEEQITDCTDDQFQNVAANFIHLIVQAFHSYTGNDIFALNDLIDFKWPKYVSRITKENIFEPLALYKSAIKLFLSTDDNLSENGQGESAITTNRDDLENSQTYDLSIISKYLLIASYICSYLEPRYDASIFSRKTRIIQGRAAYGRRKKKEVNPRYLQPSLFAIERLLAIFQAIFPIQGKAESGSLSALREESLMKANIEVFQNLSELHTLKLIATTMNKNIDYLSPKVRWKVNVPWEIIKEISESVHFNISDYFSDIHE

Row | Binder | binding result [1] | binding result [2] | binding result [3]
1 | S. cerevisiae Orc6 (natural protein, UniProt P38826 1-435, looked up, mixture of unphosphorylated and phosphorylated Orc6, including established CDK sites (sites not given), Orc6, S. cerevisiae, wild type; Stood in the assays as a subunit of ScORC·DNA(·Cdc6); also called ScOrc6; holds Orc6-CBN (N-terminal cyclin box fold) and Orc6-CBC (C-terminal cyclin box fold); source: High5 insect cells, co-expressed and purified as a subunit of ScORC) MSMQQVQHCVAEVLRLDPQEKPDWSSGYLKKLTNATSILYNTSLNKVMLKQDEEVARCHICAYIASQKMNEKHMPDLCYYIDSIPLEPKKAKHLMNLFRQSLSNSSPMKQFAWTPSPKKNKRSPVKNGGRFTSSDPKELRNQLFGTPTKVRKSQNNDSFVIPELPPMQTNESPSITRRKLAFEEDEDEDEEEPGNDGLSLKSHSNKSITGTRNVDSDEYENHESDPTSEEEPLGVQESRSGRTKQNKAVGKPQSELKTAKALRKRGRIPNSLLVKKYCKMTTEEIIRLCNDFELPREVAYKIVDEYNINASRLVCPWQLVCGLVLNCTFIVFNERRRKDPRIDHFIVSKMCSLMLTSKVDDVIECVKLVKELIIGEKWFRDLQIRYDDFDGIRYDEIIFRKLGSMLQTTNILVTDDQYNIWKKRIEMDLALTEPL | binds | – | –
2 | B1 | – | binds | binds
